Substrate in data set [1]: CC(C)(C)OO
Briefly: hydroperoxide removal, FOX1 (xylenol orange) assay, Michaelis-Menten. It is filed as biochemical, Hydrogenobacter thermophilus. The settings on record: 0.5 mM NADPH and FNR as electron donor system, 50 mM sodium phosphate pH 6.0, 50°C, anaerobic.

Substrate in data set [2]: CC(C)(OO)c1ccccc1
Described as above. It counts as biochemical, Hydrogenobacter thermophilus. The note with it: 0.5 mM NADPH and FNR as electron donor system, 50 mM sodium phosphate pH 6.0, 50°C, anaerobic.

B1: ferriperoxin (Fpx) (Hydrogenobacter thermophilus TK-6) (protein)
chain: MKSLAGTKTLECLKHAFAGESQANRRYLYFARKADIEGYPDIANVFRETAEGETGHAFGHLEFLEKYGGGDPATGKPIGSMEQNLEAAIAGETYEYTEMYPGFAKTAREEGFDDIAEWFETLARAEKSHAGRFQKALESLKA
notes: full-length untagged (own start and stop codon, pET21c NdeI-HindIII), E. coli BL21(DE3); N-terminus MKSLAGTKTL; diiron holoprotein
With B1, the Km was found to be 1300 ± 300 µM in data set [1] and 1100 ± 200 µM in data set [2].

In general, Km refers to the substrate concentration at which the rate is half of its maximum.
